# Measured values taken from patent US20150284470A1.
# Assays:
# FcRn (human) = FcRn (human) (UniProt P55899); experiment: SPR; pH 6.0
# CD32b(Y163) = CD32b(Y163) (UniProt P31994); experiment: SPR
# CD32b(Y163), sequence (P31994 43-217): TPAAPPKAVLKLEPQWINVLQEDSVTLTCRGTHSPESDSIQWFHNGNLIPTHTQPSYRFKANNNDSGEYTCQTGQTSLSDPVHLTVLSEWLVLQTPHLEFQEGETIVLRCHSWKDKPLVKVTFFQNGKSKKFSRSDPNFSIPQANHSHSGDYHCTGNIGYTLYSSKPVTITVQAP
# FcRn (human), sequence (P55899 24-297): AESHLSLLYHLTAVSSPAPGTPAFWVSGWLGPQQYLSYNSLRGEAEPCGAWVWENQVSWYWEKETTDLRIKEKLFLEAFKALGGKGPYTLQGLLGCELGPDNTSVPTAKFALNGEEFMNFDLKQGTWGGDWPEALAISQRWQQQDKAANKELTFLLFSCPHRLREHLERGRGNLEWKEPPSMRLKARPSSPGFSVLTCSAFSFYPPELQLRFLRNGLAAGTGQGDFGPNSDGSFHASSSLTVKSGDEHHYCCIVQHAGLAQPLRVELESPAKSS
substance,measurement,setting,value
Herceptin WT,Kd,FcRn (human),3.7 µM
same,Kd,CD32b(Y163),1.7 µM
